{"source": "the Immune Epitope Database (IEDB)", "key": {"HLA-A*02:03 [1]": {"target": "HLA-A*02:03", "experiment": "IEDB peptide-MHC binding, purified MHC/direct/fluorescence; filed as Kd, often an IC50 or EC50 that approximates it; ≥ and ≤ were set here for values at or beyond the usual limits of such assays"}, "HLA-B*27:03": {"target": "HLA-B*27:03", "experiment": "IEDB peptide-MHC binding, purified MHC/direct/fluorescence; filed as Kd, often an IC50 or EC50 that approximates it; ≥ and ≤ were set here for values at or beyond the usual limits of such assays", "conditions": "source organism: Cryptosporidium parvum Iowa II"}, "HLA-A*29:02": {"target": "HLA-A*29:02", "experiment": "IEDB peptide-MHC binding, purified MHC/direct/fluorescence; filed as Kd, often an IC50 or EC50 that approximates it; ≥ and ≤ were set here for values at or beyond the usual limits of such assays", "conditions": "source organism: Cryptosporidium parvum Iowa II"}, "HLA-B*46:01": {"target": "HLA-B*46:01", "experiment": "IEDB peptide-MHC binding, purified MHC/direct/fluorescence; filed as Kd, often an IC50 or EC50 that approximates it; ≥ and ≤ were set here for values at or beyond the usual limits of such assays", "conditions": "source organism: Cryptosporidium parvum Iowa II"}, "HLA-A*68:02 [2]": {"target": "HLA-A*68:02", "experiment": "IEDB peptide-MHC binding, purified MHC/direct/fluorescence; filed as Kd, often an IC50 or EC50 that approximates it; ≥ and ≤ were set here for values at or beyond the usual limits of such assays", "conditions": "source organism: Cryptosporidium parvum Iowa II"}, "HLA-A*02:12": {"target": "HLA-A*02:12", "experiment": "IEDB peptide-MHC binding, purified MHC/direct/fluorescence; filed as Kd, often an IC50 or EC50 that approximates it; ≥ and ≤ were set here for values at or beyond the usual limits of such assays"}, "HLA-A*69:01": {"target": "HLA-A*69:01", "experiment": "IEDB peptide-MHC binding, purified MHC/direct/fluorescence; filed as Kd, often an IC50 or EC50 that approximates it; ≥ and ≤ were set here for values at or beyond the usual limits of such assays"}, "HLA-A*26:01 [3]": {"target": "HLA-A*26:01", "experiment": "IEDB peptide-MHC binding, purified MHC/direct/fluorescence; filed as Kd, often an IC50 or EC50 that approximates it; ≥ and ≤ were set here for values at or beyond the usual limits of such assays", "conditions": "source organism: Cryptosporidium parvum Iowa II"}, "HLA-B*57:01": {"target": "HLA-B*57:01", "experiment": "IEDB peptide-MHC binding, purified MHC/direct/fluorescence; filed as Kd, often an IC50 or EC50 that approximates it; ≥ and ≤ were set here for values at or beyond the usual limits of such assays", "conditions": "source organism: Cryptosporidium parvum Iowa II"}, "HLA-A*03:01": {"target": "HLA-A*03:01", "experiment": "IEDB peptide-MHC binding, purified MHC/direct/fluorescence; filed as Kd, often an IC50 or EC50 that approximates it; ≥ and ≤ were set here for values at or beyond the usual limits of such assays", "conditions": "source organism: Cryptosporidium parvum Iowa II"}, "HLA-A*24:03": {"target": "HLA-A*24:03", "experiment": "IEDB peptide-MHC binding, purified MHC/direct/fluorescence; filed as Kd, often an IC50 or EC50 that approximates it; ≥ and ≤ were set here for values at or beyond the usual limits of such assays", "conditions": "source organism: Cryptosporidium parvum Iowa II"}, "HLA-B*18:01": {"target": "HLA-B*18:01", "experiment": "IEDB peptide-MHC binding, purified MHC/direct/fluorescence; filed as Kd, often an IC50 or EC50 that approximates it; ≥ and ≤ were set here for values at or beyond the usual limits of such assays", "conditions": "source organism: Cryptosporidium parvum Iowa II"}, "HLA-B*51:01": {"target": "HLA-B*51:01", "experiment": "IEDB peptide-MHC binding, purified MHC/direct/fluorescence; filed as Kd, often an IC50 or EC50 that approximates it; ≥ and ≤ were set here for values at or beyond the usual limits of such assays", "conditions": "source organism: Cryptosporidium parvum Iowa II"}, "HLA-A*02:16": {"target": "HLA-A*02:16", "experiment": "IEDB peptide-MHC binding, purified MHC/direct/fluorescence; filed as Kd, often an IC50 or EC50 that approximates it; ≥ and ≤ were set here for values at or beyond the usual limits of such assays", "conditions": "source organism: Cryptosporidium parvum Iowa II"}, "HLA-A*02:19": {"target": "HLA-A*02:19", "experiment": "IEDB peptide-MHC binding, purified MHC/direct/fluorescence; filed as Kd, often an IC50 or EC50 that approximates it; ≥ and ≤ were set here for values at or beyond the usual limits of such assays", "conditions": "source organism: Cryptosporidium parvum Iowa II"}, "HLA-A*02:01 [4]": {"target": "HLA-A*02:01", "experiment": "IEDB peptide-MHC binding, purified MHC/direct/fluorescence; filed as Kd, often an IC50 or EC50 that approximates it; ≥ and ≤ were set here for values at or beyond the usual limits of such assays", "conditions": "source organism: Cryptosporidium parvum Iowa II"}, "HLA-B*15:01": {"target": "HLA-B*15:01", "experiment": "IEDB peptide-MHC binding, purified MHC/direct/fluorescence; filed as Kd, often an IC50 or EC50 that approximates it; ≥ and ≤ were set here for values at or beyond the usual limits of such assays", "conditions": "source organism: Cryptosporidium parvum Iowa II"}, "HLA-B*15:17": {"target": "HLA-B*15:17", "experiment": "IEDB peptide-MHC binding, purified MHC/direct/fluorescence; filed as Kd, often an IC50 or EC50 that approximates it; ≥ and ≤ were set here for values at or beyond the usual limits of such assays", "conditions": "source organism: Cryptosporidium parvum Iowa II"}, "HLA-A*02:11": {"target": "HLA-A*02:11", "experiment": "IEDB peptide-MHC binding, purified MHC/direct/fluorescence; filed as Kd, often an IC50 or EC50 that approximates it; ≥ and ≤ were set here for values at or beyond the usual limits of such assays", "conditions": "source organism: Cryptosporidium parvum Iowa II"}, "HLA-B*08:01": {"target": "HLA-B*08:01", "experiment": "IEDB peptide-MHC binding, purified MHC/competitive/fluorescence; filed as Kd, often an IC50 or EC50 that approximates it; ≥ and ≤ were set here for values at or beyond the usual limits of such assays", "conditions": "source organism: Human immunodeficiency virus 1"}, "HLA-A*02:03 [5]": {"target": "HLA-A*02:03", "experiment": "IEDB peptide-MHC binding, purified MHC/competitive/fluorescence; filed as Kd, often an IC50 or EC50 that approximates it; ≥ and ≤ were set here for values at or beyond the usual limits of such assays", "conditions": "source organism: Human immunodeficiency virus 1"}, "HLA-B*15:09": {"target": "HLA-B*15:09", "experiment": "IEDB peptide-MHC binding, purified MHC/competitive/fluorescence; filed as Kd, often an IC50 or EC50 that approximates it; ≥ and ≤ were set here for values at or beyond the usual limits of such assays", "conditions": "source organism: Human immunodeficiency virus 1"}, "HLA-A*68:02 [6]": {"target": "HLA-A*68:02", "experiment": "IEDB peptide-MHC binding, purified MHC/competitive/fluorescence; filed as Kd, often an IC50 or EC50 that approximates it; ≥ and ≤ were set here for values at or beyond the usual limits of such assays", "conditions": "source organism: Human immunodeficiency virus 1"}, "HLA-A*26:01 [7]": {"target": "HLA-A*26:01", "experiment": "IEDB peptide-MHC binding, purified MHC/competitive/fluorescence; filed as Kd, often an IC50 or EC50 that approximates it; ≥ and ≤ were set here for values at or beyond the usual limits of such assays", "conditions": "source organism: Human immunodeficiency virus 1"}, "HLA-A*30:01": {"target": "HLA-A*30:01", "experiment": "IEDB peptide-MHC binding, purified MHC/competitive/fluorescence; filed as Kd, often an IC50 or EC50 that approximates it; ≥ and ≤ were set here for values at or beyond the usual limits of such assays", "conditions": "source organism: Human immunodeficiency virus 1"}, "HLA-A*02:06": {"target": "HLA-A*02:06", "experiment": "IEDB peptide-MHC binding, purified MHC/competitive/fluorescence; filed as Kd, often an IC50 or EC50 that approximates it; ≥ and ≤ were set here for values at or beyond the usual limits of such assays", "conditions": "source organism: Human immunodeficiency virus 1"}, "HLA-A*26:02": {"target": "HLA-A*26:02", "experiment": "IEDB peptide-MHC binding, purified MHC/competitive/fluorescence; filed as Kd, often an IC50 or EC50 that approximates it; ≥ and ≤ were set here for values at or beyond the usual limits of such assays", "conditions": "source organism: Human immunodeficiency virus 1"}, "HLA-A*02:01 [8]": {"target": "HLA-A*02:01", "experiment": "IEDB peptide-MHC binding, purified MHC/competitive/fluorescence; filed as Kd, often an IC50 or EC50 that approximates it; ≥ and ≤ were set here for values at or beyond the usual limits of such assays", "conditions": "source organism: Human immunodeficiency virus 1"}, "HLA-B*07:02": {"target": "HLA-B*07:02", "experiment": "IEDB peptide-MHC binding, purified MHC/competitive/fluorescence; filed as Kd, often an IC50 or EC50 that approximates it; ≥ and ≤ were set here for values at or beyond the usual limits of such assays", "conditions": "source organism: Human immunodeficiency virus 1"}, "HLA-C*06:02": {"target": "HLA-C*06:02", "experiment": "IEDB peptide-MHC binding, purified MHC/direct/fluorescence; filed as Kd, often an IC50 or EC50 that approximates it; ≥ and ≤ were set here for values at or beyond the usual limits of such assays", "conditions": "source organism: Mycobacterium tuberculosis variant bovis BCG str. Pasteur 1173P2"}, "[9]": {"conditions": "source organism: Cryptosporidium parvum Iowa II"}, "[10]": {"conditions": "source organism: Mycobacterium tuberculosis str. Haarlem"}}, "data": [{"sequence": "DHIPIINTL", "values": [{"measurement": "Kd", "setting": "HLA-A*02:03 [1]; [9]", "result": "≥ 20000", "unit": "nM"}, {"measurement": "Kd", "setting": "HLA-B*27:03", "result": "≥ 20", "unit": "µM"}, {"measurement": "Kd", "setting": "HLA-A*29:02", "result": "≥ 20", "unit": "µM"}, {"measurement": "Kd", "setting": "HLA-B*46:01", "result": "≥ 20", "unit": "µM"}, {"measurement": "Kd", "setting": "HLA-A*68:02 [2]", "result": "≥ 20", "unit": "µM"}, {"measurement": "Kd", "setting": "HLA-A*02:12; [9]", "result": "≥ 20000", "unit": "nM"}, {"measurement": "Kd", "setting": "HLA-A*69:01; [9]", "result": "≥ 20000", "unit": "nM"}, {"measurement": "Kd", "setting": "HLA-A*26:01 [3]", "result": "≥ 20", "unit": "µM"}, {"measurement": "Kd", "setting": "HLA-B*57:01", "result": "≥ 20", "unit": "µM"}, {"measurement": "Kd", "setting": "HLA-A*03:01", "result": "≥ 20", "unit": "µM"}, {"measurement": "Kd", "setting": "HLA-A*24:03", "result": "≥ 20", "unit": "µM"}, {"measurement": "Kd", "setting": "HLA-B*18:01", "result": "≥ 20", "unit": "µM"}, {"measurement": "Kd", "setting": "HLA-B*51:01", "result": "≥ 20", "unit": "µM"}, {"measurement": "Kd", "setting": "HLA-A*02:16", "result": "≥ 20", "unit": "µM"}, {"measurement": "Kd", "setting": "HLA-A*02:19", "result": "≥ 20", "unit": "µM"}, {"measurement": "Kd", "setting": "HLA-A*02:01 [4]", "result": "≥ 20", "unit": "µM"}, {"measurement": "Kd", "setting": "HLA-B*15:01", "result": "≥ 20", "unit": "µM"}, {"measurement": "Kd", "setting": "HLA-B*15:17", "result": "≥ 20", "unit": "µM"}, {"measurement": "Kd", "setting": "HLA-A*02:11", "result": "≥ 20", "unit": "µM"}]}, {"sequence": "EIKSLFNTI", "values": [{"measurement": "Kd", "setting": "HLA-B*08:01", "result": 1620, "unit": "nM"}, {"measurement": "Kd", "setting": "HLA-A*02:03 [5]", "result": "≥ 20", "unit": "µM"}, {"measurement": "Kd", "setting": "HLA-B*15:09", "result": "≥ 20", "unit": "µM"}, {"measurement": "Kd", "setting": "HLA-A*68:02 [6]", "result": 36, "unit": "nM"}, {"measurement": "Kd", "setting": "HLA-A*26:01 [7]", "result": "≥ 20", "unit": "µM"}, {"measurement": "Kd", "setting": "HLA-A*30:01", "result": "≥ 20", "unit": "µM"}, {"measurement": "Kd", "setting": "HLA-A*02:06", "result": 61.7, "unit": "nM"}, {"measurement": "Kd", "setting": "HLA-A*26:02", "result": "≥ 20", "unit": "µM"}, {"measurement": "Kd", "setting": "HLA-A*02:01 [8]", "result": "≥ 20", "unit": "µM"}, {"measurement": "Kd", "setting": "HLA-B*07:02", "result": 6, "unit": "µM"}]}, {"sequence": "YLYDETQDV", "values": [{"measurement": "Kd", "setting": "HLA-A*02:03 [1]; [10]", "result": 2, "unit": "nM"}, {"measurement": "Kd", "setting": "HLA-A*02:12; [10]", "result": 6, "unit": "nM"}, {"measurement": "Kd", "setting": "HLA-A*69:01; source organism: Mycobacterium tuberculosis", "result": 1240, "unit": "nM"}, {"measurement": "Kd", "setting": "HLA-C*06:02", "result": 41, "unit": "nM"}]}]}
